# Measured values taken from the nanobody polyreactivity screen of Harvey et al. (2022).
# Test: yeast display, Sf9 membrane polyspecificity reagent, FACS + sequencing; frameworks hold sequencing errors
# Method in brief: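 Genes from sorted yeast were amplified by colony PCR, read by MiSeq 2 × 250 sequencing and filtered on CDR length. These cells carried a synthetic nanobody library in Saccharomyces cerevisiae BJ5465 and were sorted by FACS into low and high (top ~1%) gates on anti-HA and streptavidin fluorescence. Polyreactivity is labelled according to the gate of origin.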
row,Sequence,polyreactivity (PSR sort gate)
1,QVQLVESGGGLVQAGGSLRLSCGASGFTFRPYAMGWYRQAPGKERELVAAITSGDSTNYADSVKGRFTISCDNAKNTVYLQMNSLKPEDTAVYYCAADSTGRPSVSYDYWGQGTQVTVSS,low polyreactivity
2,QVQLVESGGGLVQAGGSLRLSCAASGLTFGGSAMGWYRQAPGKERELVAGISSSGNTNYADSVKGRFTISRDNAKNTVYLQMISLKPEDTAVYYCAADENITYPVYDMYYWGQGTQVTVSS,low polyreactivity
3,QVQLVESGGGLVQAGGSLSLSCAASGSIFAAYTMGWYRQAPGQDRELVAAITSGGTYADSVKGRFTISRDNAKYSVYLQKNSLQPEVTAVYYCYAGNNVVVDYDYWGQGTQVTVSS,low polyreactivity
4,QVQLVESGGGLVQAGGSLRLICAASGFIYSYYAMGWYRQAPGKERELVAVISGSGGGTYYAVSVKGRFRISRDNAKNTVYLQMNSLKPEDTAVYDFAARNSGGTTKYYYWGQGTQVTVSS,high polyreactivity
5,QDHLVESGGGLVQAGGSLRLSCAASGSTFGKNTMGWYRQAPGKERELVAAISRGVSTYYADSVKGSFTISRDNAKNTVYLQMNSLKPEDTAVYYCAAQEAYRWYGYYYWGQGTQVTVSS,high polyreactivity
6,QVELVESGGGLVQAGGSLRLSCAASGSTFYRYAMGWYRQAPGKEREFVARIDWSDGSTNYADSVKGRFTISRDTAKNTVYLQMNSLKPEDTAVYYCAADTYYDTYDGEYEYWGQGTQVTVSS,low polyreactivity
7,QVQLVESGGGLVQAGGSLRLSCASSGFTFYYYAMGWYRQAPGKEMELVAAIDTSDGSTYYADSVKGRFTISRDNAKNTVYLQMNSLKPEDTAVYYCAAEVDWVPFLLDYWGQGTQVTVSS,low polyreactivity
8,QVQLEESGGGLVQAGGSLRLSCAASGRIFRYTLGWYRQAPGKERELVATINSGGRTYDADSVKGRFTISRDNAKNTVYLQMNSLKPEDTAVYYCAATYQTKSNKYVHGSPIENDYWGQGTQVTGSS,low polyreactivity
9,QVQLVESGGGLVQAGGSLRLSCAASGRTFRKFAMGWYRQAPGKERELVAASSWSGGSTYYANSVKGRFTISRDNAKNTVYLQMNSLKPDDTAVYYCAAVPVHTGSLYWGFTTGYDYWGQGTQVTVSS,low polyreactivity
10,QVQLVESGGGLVQAGGSLRLSCAASGRIFRFYAMGWYRQAPGKERELVAAISSSAGGTYADSVKGRFTISRDYAKNTVYLQMNSRKPEDTAVYYCAARAYALYDWGQGTQVTVSS,high polyreactivity
11,QVQLVESGGGLVQAGGSLRLSCAASGRIFYGNAMGWYRQAPGKERELVAAISSGTSTNYADSVKGRFTISRDNAKNTVYLEMNRLKPEDTAVYDCAAGSYSRYLYSLYFDFDYWGQGTQVTVSS,low polyreactivity
12,QVQLVESGGGLVQAGGSLRLSCAASGRIFVQYAMGWYRQAPGKERELVAAISYSGGRTYYADSVKGRFTISRDNAKNTVYLQMNSLKPEDTAVYYCAAVRAGYYGYWGKGTQVTVSS,high polyreactivity
13,QVQLVESGGGLVQAGGSLRLSCAASGITFSRYAMGWYRQAPGKERELVAAISWSGTSTYYADSVKGRFTISRDNAKNTVYLQMNSLKPEDTAVYYCAASYGYYRYGYWGQGTQVTVSS,high polyreactivity
14,QVQLVESGGGLVQAGGSLRLSCAASGRIFAPKAMGWYRQAPGKERELVADINFSGDSTYYADSVKGRFTISRDNAKNTVYLQMNSLKPEDTAVYYCAADISLVSYYYWGQGTQVTVSS,low polyreactivity
15,QVQLVESRGGLVQAGGILRLSCAACGSTFPKYAMGWYRQAPGKERELVAAITGISGRTYYADSLKGRFTISRDNAKNTVYLQMNSLKPEDTAVYYCNARIFAGWSIYNYWGQGTQVTVSS,high polyreactivity
16,QVQLVESGGGLVQAGGSLRLSCAATGRIFHGYAMGWYRQAPGKERELVAAIDEDGGSTYYADSVKGRFTISRDNAKNTVYLQMNSLKPVDTAVYYCNADCSVRLDGFDYWGQGTQVTVSS,low polyreactivity
17,QVQLVESGGGLVQAGGSHRLSCAASGRTFRYNAMGWYRQATGKERELVAAISTRGGSTYYADSVKGRFTISRDNAKNTVYLQMNSLKPEDTAVYYCATKVYSSRYRGYGYWGQGTQVTVSS,high polyreactivity
18,QVQIEESGGGLVQAGGSLPLSCAASGTIFKYYTRGWYRLAPGKERELFAAISGSGGTTYYADSVKGRFTISRDNAKNTVYLQMNSLKPEDTAVYYCATAYYRAFRGDYWGQGTQVTVSS,high polyreactivity
19,QVQLVESGGGLVQAGGSLRLSCAASGSTFVRYDMGWYRQAPGKERELVADISWSGVSTYADSVKGRFTISRDNAKNTVYLQMNSLKPEDTAVYYCAKDSDLYQRGGYYWGQGTQVTVSS,low polyreactivity
20,QVQLVESGGGLVQAGGSLRLSCAASGSTFESNTMGWYRQAPGKERELVAASSYSGGRTYYADSVKGRFTISRVNAKNTVYFQMNILKPEDTAVYSCAARWSVSYRMYYWGQGTQVTVSS,high polyreactivity
21,QVQLVESGGGLVQAGGSLRLSCAASGSTFISNAMGWYRQAPGKERELVAAITRRGGGTYYADSVKGRFTISRDNAMNTVYLQMNSLKPEDTAVYYCAARPWWRGYRFDYWGQGTQVTVSS,high polyreactivity
22,QVHLVESGGGLVQAGGSLRLSCAASGSTFLYYAMGWYRQAPGKERELVAAISSSGGRTYYADSVKGRFTISRDNAKNTVYLQMNSLKPEDTAVYYCAADGRRTSKAGYYYWGQGTQVTVSS,high polyreactivity

row,Sequence,polyreactivity (PSR sort gate)
1,QVQLVESGGGLVQAGGSLRLSCAASGLTFRYYAMGWYRQEPGKERELVATITRAGRTNYADSVKGRFTISRDNAKNTVYLQMNSLKPEDTAVYYCNAKQSGKYPRVVGYDYWGQGTQVTVSS,high polyreactivity
2,QVQLVESGGGLVQAGGSLRLSCAASGRIFAHYAMGWYRQAPGKERELVADITDGGSTYYADSVKGRFTISRDNAKNTVYLQMNSLKPEDTAVYYVATRRGPWPSEYDSWGQGTQVTVSS,low polyreactivity
3,QVQLVESGGGLVQAGGSLRLSCASSGITFPNYAMGWSRQAPGNERELVAAISSSGGSTYYADSVKGRFTISRDKAKNTGYLQMNSLKPEDTAVYYCATAINVYPRMDYGYWGQGTQVTVSS,low polyreactivity
4,QVQLVESGGGLVQAGGSLRLSCAASGSIFPENAMGWYRQAPGKERELVAAINRGGSTYYADSVKGRFTISRDNAKNTVYLQMNSLKPVDTAVYYCAAEYSGWGYIFNYWGQGTQVTVSS,low polyreactivity
5,QVQLVESGGGLVQAGGSIRLSCAASGSISPQNVMGWYRQAHGKERELVAAITGGGSTNYADSVKGRFTISRDNAKNTVYLQMNSLIPEDTAVYYCAADGRYAYGYNHWGQGTQVTVSS,low polyreactivity
6,QVQLVESGGGLVQAGGSLRLSCAASGRTLRYYAMGWYRQAPGKERELVATITGSGGSTYYADSVKGRFTISRDNAKNTVYLQMNSLKPEDTAVYYCNARKVRYPYRWYDYWGQGTQVTVSS,high polyreactivity
7,QVQLVESGGGLVQAGGSLRLSCAASGRIFGINVMGWYRQAPGKERELVARITGRGGRTYYADSVKGRFTISRDNAKNTVYLQMNSLKPEDTAVYYCNAQPSTTGTYDYWGQGTQVTVSS,high polyreactivity
8,QVQLVESGGGLVQAGGSLRLSCAASGNIFPAYAMGWYRQAPGKERELVATISRRGGGTYYADSVKGRFTISRDNAKNTVYLQMNSLKPEDTAVYYCNVAGWTSAYDYWGQGTQVTVSS,low polyreactivity
9,QVQLVESGGGLVQAGGSLRLSCADSGLIFWAYAMGWYRQEPGTERELVAAINWRGGSTYYADSVKGRFTISRDTAKNTVYLQMNSLKPEDTAVYYCAADSYYDEYDYWGQGTQVTVSS,low polyreactivity
10,QVQLVESGGGLVQAGGSLRLSCAASGRTLPYYMRWYRQAPGKERELVAAITNGDSTYYADSVKGRFTISRDNAQNTVYLQMNSLKPEDTAVYDCAARQKVPPQYWGQGTQVTVSS,high polyreactivity
11,QVQLVESGGGLVQAGGSLRLSCAASGSTIGLNAMGWYIQEPGKEREFVAAISVSSGNKYYADSVKGRFTISRDNAKNTVYLQMNSLKPEDTAVYYCAARPRSHYIAQYYYWGQGTHVTVSS,low polyreactivity
12,QVQLVESCGGLVHAGGSLRLSCAASGITLKWNDMGLYRQAPGKEREFVAAITGSTGSTFYADSVKGRFTISRDNAKNTVYLQMNSLKPEDTAVYYCAAGPWFYYWGQGTQVTVSS,low polyreactivity
13,QVQHVESGGGLVHAGCRLRLSCAASGRTFIKYAMGWYRQAPGTERELVAGISGGGASTYYADSVKGRFTISRDNAKNTVYLQMNSLKPEETAVYYFAKLSPRGRRYDYWGQGTQVTVSS,high polyreactivity
14,QVQLVESGGGLVHAGGSLSLSCAASGSIFGQYAMGWYRQAPGKERELVAAISYSTDARTYYADSVKGRFTISRDNAKNTVYLQMNSLKPEDTAVYYFNADSYFGYWGQGTQVTVSS,low polyreactivity
15,QVHLVESVGGLVQAGGSLRLICAASGRIFRRYAMGWYIQAPGKEREFVAAISYGGGSTYYADSVKGRFTISRDNAKNTVYLQMNSLKPEDSAVYYCNADVPKSLLLYYPWGYGYWGQGTQVTVSS,low polyreactivity
16,QVQLVESGGGLVQTGGSLRLSCAASGSTFYLYTMGWYRQAPGKERELVAAISGRDGSTYYADSVKGRFTISRDNAKNTVYLQMNSLKPEDTAVYYCAADPGYTYVHVTYYYWGQGTQVTVSS,low polyreactivity
17,QVQLVESGGGLVQAGGSLRLSCAASGFTFSYSAMGWYRPAPGKERELVAAISSGGRTYYADSVKGRFTISRDNAKNTVYLQMNSLKPEDTAVYYCNAEPDQYTLRSITNDEDYWGQGTQVTVSS,low polyreactivity
18,QVQLVESGGGLVQAGGSLRLSCAASGRILWSYAMGWYRQAPGKEREFVATINRSGGNTHYADSVKGRFTISRDNAKNTVYLQMNSLKPEDTAVYYCAARNLVPYGYQGLRYYYWGQGTQVTVSS,high polyreactivity
19,KVQLVESGGGLVQAGGSLRLSCAASGSIFSFYTKGWYRQAPGKERELVAAINWSGSRTYYADSVKGRFTISRDNAKNTVYLQMNSLKPVDTAVYYCAAYLWFYVRYEYWGQGTQVTVSS,high polyreactivity
20,QVQLVESGGGLVQAGVSLRLSCAASGSIFRIYGMGWYRQAPGKEREFVAAITHSGGSTYYADSVKGRFTISRDNAKNTVYLQMNSLKPEDTAVYYCAAEDYNYWSYDYWGQGTQVTVSS,low polyreactivity
21,QVQLVESGGGLFQAGGSLRLSCAASGSIFTPNTMGWYRKAPGKERELVAAITIRGGSTYYADSLKGRFTISRDNAKNTVYLQMNSLKPEDTAVYYCATEYALRYYLVDYWGQGTQVTVSS,low polyreactivity
